Molecular target: HLA-A*02:01 (Homo sapiens, UniProt P04439, D140Y/D185E/D98H/E176V/E277Q/G131W/G231S/I119V/I121R/I166T/I218V/L300P/L318F/N151K/N90K/P208A/P217A/Q86G/Q94H/R138H/R169H/T345S)
Assay: MHC binding assay (UV-ligand exchange, β2m ELISA, peptide exchange yield)
Conditions: MHC class I binding score; binding to HLA-A*02:01 ranged by peptide exchange yield (UV-ligand exchange, β2m ELISA)
Summary of the method: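 Peptide–HLA-A*02:01 complexes were formed by UV-mediated exchange of a UV-cleavable ligand for the test peptide. Exchange yield was measured by capturing complexes on streptavidin, detecting with HRP anti-β2m antibody (1 h, 37°C) and reading TMB absorbance at 450 nm.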

Row | Substance | Peptide exchange
1 | 251 (ALYTGFSILV; listed as Homo sapiens) [compound 251] | “++” (≧20% = ++)
2 | 320 (KMFEFVEPLL; listed as Homo sapiens) [compound 320] | “++++” (≧75% = ++++)
3 | 72 (SLLELDGINL; listed as Homo sapiens) [compound 72] | “+++” (≧50 = +++)
4 | 42 (VLLQKIVSA; listed as Homo sapiens) [compound 42] | “+++” (≧50 = +++)
5 | 181 (LLWAGTAFQV; listed as Homo sapiens) [compound 181] | “+++” (≧50 = +++)
6 | 26 (ALLELAEEL; listed as Homo sapiens) [compound 26] | “+++” (≧50 = +++)
7 | 97 (SLINGSFLV; listed as Homo sapiens) [compound 97] | “+++” (≧50 = +++)
8 | 212 (ALWDQDNLSV; listed as Homo sapiens) [compound 212] | “++” (≧20% = ++)
9 | 132 (LLVEQPPLAGV; listed as Homo sapiens) [compound 132] | “+++” (≧50 = +++)
10 | 67 (TLLAEALVTV; listed as Homo sapiens) [compound 67] | “+++” (≧50 = +++)
11 | 269 (RVLEVGALQAV; listed as Homo sapiens) [compound 269] | “++” (≧20% = ++)
12 | 275 (YLVYILNEL; listed as Homo sapiens) [compound 275] | “++” (≧20% = ++)
13 | 193 (QLLDADGFLNV; listed as Homo sapiens) [compound 193] | “+++” (≧50 = +++)
14 | 300 (ALLGQTFSL; listed as Homo sapiens) [compound 300] | “+++” (≧50 = +++)
15 | 188 (GLFPVTPEAV; listed as Homo sapiens) [compound 188] | “+++” (≧50 = +++)
16 | 232 (ALLEAQDVELYL; listed as Homo sapiens) [compound 232] | “++” (≧20% = ++)
17 | 296 (FMEGAIIYV; listed as Homo sapiens) [compound 296] | “+++” (≧50 = +++)
18 | 196 (YLYSVEIKL; listed as Homo sapiens) [compound 196] | “++++” (≧75% = ++++)
19 | 231 (FLSPQQPPLLL; listed as Homo sapiens) [compound 231] | “++” (≧20% = ++)
20 | 244 (SLFGGTEITI; listed as Homo sapiens) [compound 244] | “+++” (≧50 = +++)
21 | 282 (LLADVVPTT; listed as Homo sapiens) [compound 282] | “+++” (≧50 = +++)
22 | 316 (ILLERLWYV; listed as Homo sapiens) [compound 316] | “+++” (≧50 = +++)
23 | 76 (ILIDSIYKV; listed as Homo sapiens) [compound 76] | “+++” (≧50 = +++)

Row | Substance | Peptide exchange
24 | 202 (ALLDQQGSRWTL; listed as Homo sapiens) [compound 202] | “+++” (≧50 = +++)
25 | 209 (KLIESKHEV; listed as Homo sapiens) [compound 209] | “++” (≧20% = ++)
26 | 258 (ELAERVPAI; listed as Homo sapiens) [compound 258] | “++” (≧20% = ++)
27 | 4 (GIMEHITKI; listed as Homo sapiens) [compound 4] | “++++” (≧75% = ++++)
28 | 98 (LIIDQADIYL; listed as Homo sapiens) [compound 98] | “+++” (≧50 = +++)
29 | 186 (TLFFQQNAL; listed as Homo sapiens) [compound 186] | “++” (≧20% = ++)
30 | 44 (ILDPISSGFLL; listed as Homo sapiens) [compound 44] | “++” (≧20% = ++)
31 | 172 (VLYSYTIITV; listed as Homo sapiens) [compound 172] | “++” (≧20% = ++)
32 | 91 (IMQDFPAEIFL; listed as Homo sapiens) [compound 91] | “++++” (≧75% = ++++)
33 | 288 (NLINEINGV; listed as Homo sapiens) [compound 288] | “+++” (≧50 = +++)
34 | 330 (QLALKVEGV; listed as Homo sapiens) [compound 330] | “+++” (≧50 = +++)
35 | 77 (ILVEADGAWVV; listed as Homo sapiens) [compound 77] | “++++” (≧75% = ++++)
36 | 281 (ILRESTEEL; listed as Homo sapiens) [compound 281] | “+++” (≧50 = +++)
37 | 257 (SIFSAFLSV; listed as Homo sapiens) [compound 257] | “+++” (≧50 = +++)
38 | 278 (QLLDVVLTI; listed as Homo sapiens) [compound 278] | “++” (≧20% = ++)
39 | 304 (MTLGQIYYL; listed as Homo sapiens) [compound 304] | “+++” (≧50 = +++)
40 | 192 (KMLDGASFTL; listed as Homo sapiens) [compound 192] | “+++” (≧50 = +++)
41 | 123 (NLWDLTDASVV; listed as Homo sapiens) [compound 123] | “+++” (≧50 = +++)
42 | 68 (SLMELPRGLFL; listed as Homo sapiens) [compound 68] | “++++” (≧75% = ++++)
43 | 173 (LLDSASAGLYL; listed as Homo sapiens) [compound 173] | “+++” (≧50 = +++)
44 | 41 (SLMPHIPGL; listed as Homo sapiens) [compound 41] | “+++” (≧50 = +++)
45 | 228 (AMQEYIAVV; listed as Homo sapiens) [compound 228] | “++” (≧20% = ++)

Further lines, results first:

Row | Peptide exchange | Substance
46 | “+++” (≧50 = +++) | 544 (LLWDVPAPSL; listed as Homo sapiens) [compound 544]
47 | “++++” (≧75% = ++++) | 585 (ALWDLAADKQTL; listed as Homo sapiens) [compound 585]
48 | “+++” (≧50 = +++) | 607 (RLYSGISGLEL; listed as Homo sapiens) [compound 607]
49 | “+++” (≧50 = +++) | 436 (HLAEVSAEV; listed as Homo sapiens) [compound 436]
50 | “+++” (≧50 = +++) | 583 (ILANDGVLLAA; listed as Homo sapiens) [compound 583]
51 | “+++” (≧50 = +++) | 616 (VLIDEVESL; listed as Homo sapiens) [compound 616]
52 | “++” (≧20% = ++) | 559 (VTVPPGPSL; listed as Homo sapiens) [compound 559]
53 | “+++” (≧50 = +++) | 346 (LLDSKVPSV; listed as Homo sapiens) [compound 346]
54 | “+++” (≧50 = +++) | 549 (AMLENASDIKL; listed as Homo sapiens) [compound 549]
55 | “+++” (≧50 = +++) | 437 (SMAPGLVIQAV; listed as Homo sapiens) [compound 437]
56 | “++++” (≧75% = ++++) | 576 (ILLNNSGQIKL; listed as Homo sapiens) [compound 576]
57 | “+++” (≧50 = +++) | 397 (YLFGERLLEC; listed as Homo sapiens) [compound 397]
58 | “++” (≧20% = ++) | 392 (ALLHPQGFEV; listed as Homo sapiens) [compound 392]
59 | “+++” (≧50 = +++) | 605 (KLYEAVPQL; listed as Homo sapiens) [compound 605]
60 | “+++” (≧50 = +++) | 595 (VLLSIYPRV; listed as Homo sapiens) [compound 595]
61 | “+++” (≧50 = +++) | 519 (GLLHLTLLL; listed as Homo sapiens) [compound 519]
62 | “+++” (≧50 = +++) | 609 (ALWKQLLEL; listed as Homo sapiens) [compound 609]

Row | Peptide exchange | Substance
63 | “+++” (≧50 = +++) | 486 (AVMESIQGV; listed as Homo sapiens) [compound 486]
64 | “+++” (≧50 = +++) | 618 (VLFDSESIGIYV; listed as Homo sapiens) [compound 618]
65 | “+++” (≧50 = +++) | 612 (YLYNEGLSV; listed as Homo sapiens) [compound 612]
66 | “++” (≧20% = ++) | 461 (VMFRTPLASV; listed as Homo sapiens) [compound 461]
67 | “+++” (≧50 = +++) | 433 (AMLNEPWAV; listed as Homo sapiens) [compound 433]
68 | “++” (≧20% = ++) | 434 (KVSNSGITRV; listed as Homo sapiens) [compound 434]
69 | “++” (≧20% = ++) | 570 (ALANQIPTV; listed as Homo sapiens) [compound 570]
70 | “+++” (≧50 = +++) | 572 (ALADLIEKELSV; listed as Homo sapiens) [compound 572]
71 | “+++” (≧50 = +++) | 426 (RLADKSVLV; listed as Homo sapiens) [compound 426]
72 | “++” (≧20% = ++) | 375 (SLTETIEGV; listed as Homo sapiens) [compound 375]
73 | “+++” (≧50 = +++) | 546 (VMIAGKVAVV; listed as Homo sapiens) [compound 546]
74 | “++” (≧20% = ++) | 382 (ALQNYIKEA; listed as Homo sapiens) [compound 382]
75 | “+++” (≧50 = +++) | 597 (KLLEGQVIQL; listed as Homo sapiens) [compound 597]
76 | “++++” (≧75% = ++++) | 466 (VLIANLEKL; listed as Homo sapiens) [compound 466]
77 | “+++” (≧50 = +++) | 564 (TVTNAVVTV; listed as Homo sapiens) [compound 564]
78 | “++” (≧20% = ++) | 494 (ALQPEPIKV; listed as Homo sapiens) [compound 494]
